The labels stand for the following.
B1: 10E9 antibody (antibody, V domains shown)
VH: EVQLEESGTVLARPGASVKMSCKASGYTFTSYWMHWIKQRPGQGLEWIGAIYPGNSDTSYNQKFKGKAKLTAVTSTSTAYMELSSLTNEDSAVYYCTRGEYDYVLAYWGQGTLVTVSA
VL: DIVMTQSPATLSVTPGDSVSLSCRASQSISNNLHWYQQKSHESPRLLIKFASQSISGIPSRFSGSGSGTDFTLSINSVETEDFGMYFCQQSNSWPHMYTFGGGTKLEIK
notes: Mouse hybridoma monoclonal antibody, detected with anti-mouse IgG; Used as hybridoma culture supernatant in the ELISA
B2: 1A8 antibody (antibody, V domains shown)
VH: QVQLQQPGSELVRPGASVKLSCKASGYTFTSYWMHWVKQRHGQGLEWIGNIYPGSGSTNYDEKFKSKGTLTVDTSSRTAYMHLSSLTSEDSAVYYCTRGHYDYAMDYWGQGTSVTVSS
VL: DIVMTQSPSSLSASLGDTITITCHASQNINVWLSWYQQKPGNIPKLLIYKTSNLHTGVPSRFSGSGSGTGFTLTISSLQPEDIATYYCQQGQSYPWTFGGGTKLEIK
notes: Mouse hybridoma monoclonal antibody, detected with anti-mouse IgG
B3: 7C6 antibody (antibody, V domains shown)
VH: QVQLQQPGAELVKPGASVKLSCKASGYTFTTYYMYWVKQRPGQGLEWIGEINPSNGGTNFNEKFKSKATLTVDKSSSTAYMQLSSLTSEDSAVYYCTTFAYWGQGTLVTVSA
VL: DIVMTQSPSSLSASLGGKVTITCKASQDINKYIVWYQHKPGKGPRLLIHYTSILQPGIPSRFSGSGSGRDYSFSISNLEPEDIATYYCLQYDNLWTFGGGTKLEIK
notes: as for B2
B4: 8B2 antibody (antibody, V domains shown)
VH: QVQLQQPGAELVKPGASVKMSCKASGYTFTSYNMHWVKQTPGQGLEWIGAIYPGNGYTSYNQKFKGKATLTADKSSSTAYMQLSSLTSEDSAVYYCARGGGPFAYWGQGTLVTVSA
VL: DIVMTQSHKFMSTSVGDRVSITCKASQDVGTAVAWYQQKPGQSPKLLIYWPSTRHTGVPDRFTGSGSGTDFTLTISNVQSEDLADYFCQQYSSYPFTFGSGTKLEIK
notes: as for B2
B5: 7B9 antibody (antibody, V domains shown)
VH: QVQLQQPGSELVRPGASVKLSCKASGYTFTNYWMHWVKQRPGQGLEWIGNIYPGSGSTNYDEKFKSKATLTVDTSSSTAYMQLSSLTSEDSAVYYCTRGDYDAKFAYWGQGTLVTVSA
VL: DIVMTQSPAIMSASPGEKVTMTCRASSSVSSSYLHWYQQKSGASPKLWIYSTSKLASGVPARFSGSGSGTSYSLTISSVEAEDAATYYCQQYSGYPLITFGAGTKVELK
notes: as for B2
B6: 5E11 antibody (antibody, V domains shown)
VH: QVQLKQSGAELMKPGASVKISCKATGYTFSRYWIEWVKQRPGHGLEWIGEILPGSGSTSYNEKFKGKATFTADTSSNTAYMQLSSLTSEDSAVYYCARSARATYYFDYWGQGTTLTVSS
VL: DIQMTQTTSSLSASLGDRVTISCWASQDISNYLNWYQQKPDGTVKLLIYYTSTLHSGVPSRFSGSGSGTDYSLTISNLEQEDIATYFCQQGNALPYTFGGGTKLEIK
notes: as for B2

For the first test, the target named is T1, GPC3 expressed on hepatoma cell line HepG2 (human, UniProt P51654 25-554).
T1 construct: whole, on cells; also called GPC3-expressing tumor cells (HepG2); cells expressing GPC3
T1 sequence (P51654 25-554 limits assumed): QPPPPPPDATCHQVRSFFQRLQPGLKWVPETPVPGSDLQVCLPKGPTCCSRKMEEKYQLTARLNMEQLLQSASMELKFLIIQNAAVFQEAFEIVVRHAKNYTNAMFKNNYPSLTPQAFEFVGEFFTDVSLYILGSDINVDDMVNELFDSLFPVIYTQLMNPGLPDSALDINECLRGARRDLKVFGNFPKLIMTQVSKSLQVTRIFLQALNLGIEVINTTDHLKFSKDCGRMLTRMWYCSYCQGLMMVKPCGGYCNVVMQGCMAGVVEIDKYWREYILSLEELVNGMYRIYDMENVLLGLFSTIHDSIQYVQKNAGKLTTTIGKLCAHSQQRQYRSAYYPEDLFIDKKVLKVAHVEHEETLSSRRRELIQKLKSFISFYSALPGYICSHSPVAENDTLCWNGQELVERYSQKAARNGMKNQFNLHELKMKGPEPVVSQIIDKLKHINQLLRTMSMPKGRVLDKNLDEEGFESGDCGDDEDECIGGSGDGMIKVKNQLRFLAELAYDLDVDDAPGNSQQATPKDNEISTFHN
Nature of the test: flow cytometry on HepG2 cells, 1 µg antibody, PE anti-mouse IgG secondary; median fluorescence. How it is done: (§1) First, hepatoma cell line HepG2 expressing GPC3 was reacted with 1 μg of each of 10E9, 8B2, 7C6, 7B9, 5E11, and 1A8 antibodies for 30 minutes, and then, after staining the surface with a secondary antibody, it was measured by flow cytometry.
(§2) GPC3 antibody (Sino biology Glypican3 APC cat #100393-R024-A, 10 u.1) was used as a positive control, and PE-conjugated anti-mouse IgG antibody (PE-conjugated goat anti-mouse IgG; Biolegend Inc., cat #405307, USA, 5 μl) was used as a secondary antibody.
B1 displayed a Median of 25200.
Still for that read-out and setting: with B2 the figure was 29000.
With B3, the Median stood at 61800.
The same measure, in the same setting: with B4 the figure was 31400; with B5, 22000; with B6, 40200.

The target in another test is T1, GPC3 expressed on hepatoma cell line …. Nature of the test: flow cytometry on HepG2 cells, 1 µg antibody, PE anti-mouse IgG secondary; mean fluorescence. How it is done: as §1, §2
(Flow cytometry measures light scatter and fluorescence of single cells or particles in a stream.)
B1: the Mean was determined as 33000.
The molecule B2 registered a Mean of 36600.
The molecule B3 displayed a Mean of 81400.
On the same count and under the same terms, with B4 the figure was 40000; with B5, 27300.
B6: the Mean came out at 52600.

In the next test the target is T2, GPC3 protein (Acrobiosystems, cat #GP3-H52H4) (UniProt P51654 25-559).
T2 construct: Bought protein coated on the ELISA plate at 100 ng/well; also called Glypican 3; GPC3 antigen
T2 sequence (P51654 25-559 limits assumed): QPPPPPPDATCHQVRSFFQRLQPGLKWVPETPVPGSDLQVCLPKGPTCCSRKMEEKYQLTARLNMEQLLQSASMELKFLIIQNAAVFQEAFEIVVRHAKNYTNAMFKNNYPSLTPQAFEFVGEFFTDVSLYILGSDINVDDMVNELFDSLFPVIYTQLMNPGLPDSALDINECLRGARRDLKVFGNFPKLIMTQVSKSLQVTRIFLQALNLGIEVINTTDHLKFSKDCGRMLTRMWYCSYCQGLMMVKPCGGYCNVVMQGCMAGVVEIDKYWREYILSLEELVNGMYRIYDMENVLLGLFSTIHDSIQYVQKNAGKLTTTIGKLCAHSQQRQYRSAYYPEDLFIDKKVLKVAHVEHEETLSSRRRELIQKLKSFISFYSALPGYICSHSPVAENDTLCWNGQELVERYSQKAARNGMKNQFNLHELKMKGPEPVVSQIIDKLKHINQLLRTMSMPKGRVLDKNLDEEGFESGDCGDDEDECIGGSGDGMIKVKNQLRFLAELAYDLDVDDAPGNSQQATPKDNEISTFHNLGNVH
As to the kind of experiment: ELISA, GPC3 protein coated at 100 ng/well, 100 µl hybridoma culture, anti-mIgG-HRP. How it is done: First, in order to encode the GPC3 peptide, GPC3 protein (Acrobiosystems, cat #GP3-H52H4) was dispensed into a 96-well plate at an amount of […] and reacted overnight at 4° C. Then, after treatment with 1 X PBST containing 3% BSA, it was blocked for 30 minutes at room temperature.
100 μl of hybridoma cell culture of each clone producing 10E9, 8B2, 7C6, 7B9, 5E11 or 1A8 antibody was treated in each well, reacted at room temperature for 2 hours, and then washed three times with 1 X PBST. The secondary antibody ([…], 1:10,000) was treated and reacted at room temperature for 30 minutes, washed three times with 1 X PBST, and then treated with TMB for color development and reacted at room temperature for 5 minutes. Finally, the reaction was terminated by treatment with a stop solution of 1N H2SO 4, and then the absorbance was measured at 450 nm.
(ELISA stands for enzyme-linked immunosorbent assay.)
B1 gave an OD450 measurement of 2.32 OD450.
Consider B2, for which the OD450 measurement was 2.65 OD450.
Same read-out and setting: with B3 the figure was 2.88 OD450; with B4, 1.01 OD450; with B5, 2.54 OD450.
On to B6, for which the OD450 measurement worked out at 0.942 OD450.

Source of the values: patent US20240018262A1 (INNOBATION BIO, published 2024).
